Values joined by “and” are separate entries in the source; they are usually repeats but may differ in a detail not shown here. Identical values can stand only once.
Experiments:
[1] = target: the molecule itself; assay: native gel or EMSA; clear native electrophoresis (CN-PAGE), normal polarity (cathode-anode), 4-10% gradient gels, HEPES/imidazole pH 7.0 (40.0/15.3, 88.9/34.0 or 133.2/50 mM in the gel), 150 V, 4 °C, 5 h, ten micrograms of purified enzyme; masses from ferritin and albumin markers, means of the gel conditions; also after 10 mM DTT; dimers to higher aggregates
[2] = target: the molecule itself; assay: native gel or EMSA; clear native electrophoresis (CN-PAGE), inverse polarity (anode-cathode), 4-10% gradient gels, HEPES/imidazole pH 7.0, 150 V, 4 °C, 5 h, ten micrograms of purified enzyme; no mass markers; dimers to higher aggregates

Protein	stoichiometry N [1]	binding result [2]
Taenia solium triosephosphate isomerase (enzyme, UniProt Q9GTX8 1-250, looked up, triosephosphate isomerase (TIM), Taenia solium; gene cloned into pRSET; also called TsTIM; Ts; source: E. coli Bl21 (DE3)-p-Lys S, purified (ammonium sulphate, Butyl-650M, Source 15Q)) MTRKLFVGGNWKMNGSYSHINTFFDTLQKADTDPNADIVIGVPACYLKYAQDKAPKGIKIAAENCYKVGSGAFTGEISTEMIKDCGCEWVILGHSERRHIFGESNELIGEKVKHALDSGLNVIPCIGELLSEREAGKTNDVCFAQMDAIAKNVPSKEAWDKVVIAYEPVWAIGTGKTATPAQAQEVHKVVRDWIRKHVDAGIADKVRILYGGSVTASNAKDLGTQPDVDGFLVGGASLKPDFITIINARR	11 dimers in the aggregate and 8.5 dimers in the aggregate	
Thermus thermophilus triosephosphate isomerase (enzyme, UniProt Q5SJR1 1-250, looked up, gene cloned into pET-3aHIS; also called TtTIM; Tt; source: E. coli Bl21 (DE3)-p-Lys S, purified (ammonium sulphate, Butyl-650M, Source 15Q)) MRRVLVAGNWKMHKTPSEARVWFAELKRLLPPLQSEAAVLPAFPILPVAKEVLAETQVGYGAQDVSAHKEGAYTGEVSARMLSDLGCRYAIVGHSERRRYHGETDALVAEKAKRLLEEGITPILCVGEPLEVREKGEAVPYTLRQLRGSLEGVEPPGPEALVIAYEPVWAIGTGKNATPEDAEAMHQAIRKALSERYGEAFASRVRILYGGSVNPKNFADLLSMPNVDGGLVGGASLELESFLALLRIAG	9 dimers in the aggregate	
Trypanosoma cruzi triosephosphate isomerase (enzyme, UniProt P52270 1-251, looked up, triosephosphate isomerase (TIM), Trypanosoma cruzi; gene cloned into pET-3a; the aggregates are counted in dimers; also called TcTIM; Tc; source: E. coli Bl21 (DE3)-p-Lys S, purified (SP Sepharose fast flow, Butyl toyopearl, ammonium sulphate precipitation)) MASKPQPIAAANWKCNGSESLLVPLIETLNAATFDHDVQCVVAPTFLHIPMTKARLTNPKFQIAAQNAITRSGAFTGEVSLQILKDYGISWVVLGHSERRLYYGETNEIVAEKVAQACAAGFHVIVCVGETNEEREAGRTAAVVLTQLAAVAQKLSKEAWSRVVIAYEPVWAIGTGKVATPQQAQEVHELLRRWVRSKLGTDIAAQLRILYGGSVTAKNARTLYQMRDINGFLVGGASLKPEFVEIIEATK		binds
Leishmania mexicana triosephosphate isomerase (enzyme, UniProt P48499 1-251, looked up, triosephosphate isomerase (TIM), Leishmania mexicana; gene cloned into pET-3aHIS; also called LmTIM; Lm; source: E. coli Bl21 (DE3)-p-Lys S, purified (ammonium sulphate, Butyl-650M, Source 15Q)) MSAKPQPIAAANWKCNGTTASIEKLVQVFNEHTISHDVQCVVAPTFVHIPLVQAKLRNPKYVISAENAIAKSGAFTGEVSMPILKDIGVHWVILGHSERRTYYGETDEIVAQKVSEACKQGFMVIACIGETLQQREANQTAKVVLSQTSAIAAKLTKDAWNQVVLAYEPVWAIGTGKVATPEQAQEVHLLLRKWVSENIGTDVAAKLRILYGGSVNAANAATLYAKPDINGFLVGGASLKPEFRDIIDATR		binds

Source: article PMC6987189, “Native aggregation is a common feature among triosephosphate isomerases of different species” (Scientific Reports, 2020)
